# Measurements taken from the Human Domainome abundance scans (Beltran et al. 2025).
# ± gives the uncertainty stated by the source.
# B1: E3 ubiquitin-protein ligase Midline-1, residues 172 to 214; numbered along this chain, O15344 (parent)
# chain: GLMCLEHEDEKVNMYCVTDDQLICALCKLVGRHRDHQVAALSE
# Variants of: B1
# Assay: abundance fitness (aPCA) (normalised: wild type 0, dead -1); higher = more abundant; growth selection in yeast, the domain comes from the species named
# Settings: Homo sapiens
row,Variant,abundance fitness
1,GLMCLEHEDEKVNMYCVTDDQLICALCKLVGRHRDHQIAALSE,-0.217 ± 0.11
2,GLMCLEHEDEKVNMYCVTDDQLICALCKLVGRHRDHQKAALSE,-0.209 ± 0.1
3,GLMCLEHEDEKVNMYCVTDDQLICALCKLVGRHRDHQQAALSE,-0.125 ± 0.09
4,GLMCLEHEDEKVNMYCVTDDQLICALCKLVGRHRDHQFAALSE,0.124 ± 0.19
5,GLMCLEHEDEKVNMYCVTDDQLICALCKLVGRHRDHQGAALSE,-0.134 ± 0.051
6,GLMCLEHEDEKVNMYCVTDDQLICALCKLVGRHRDHQTAALSE,-0.233 ± 0.17
7,GLMCLEHEDEKVNMYCVTDDQLICALCKLVGRHRDHQMAALSE,-0.18 ± 0.1
8,GLMCLEHEDEKVNMYCVTDDQLICALCKLVGRHRDHQHAALSE,0.082 ± 0.062
9,GLMCLEHEDEKVNMYCVTDDQLICALCKLVGRHRDHQRAALSE,-0.217 ± 0.059
10,GLMCLEHEDEKVNMYCVTDDQLICALCKLVGRHRDHQDAALSE,-0.131 ± 0.12
11,GLMCLEHEDEKVNMYCVTDDQLICALCKLVGRHRDHQSAALSE,-0.008 ± 0.07
12,GLMCLEHEDEKVNMYCVTDDQLICALCKLVGRHRDHQNAALSE,-0.243 ± 0.15
13,GLMCLEHEDEKVNMYCVTDDQLICALCKLVGRHRDHQLAALSE,-0.035 ± 0.068
14,GLMCLEHEDEKVNMYCVTDDQLICALCKLVGRHRDHQWAALSE,-0.018 ± 0.081
15,GLMCLEHEDEKVNMYCVTDDQLICALCKLVGRHRDHQCAALSE,0.076 ± 0.088
16,GLMCLEHEDEKVNMYCVTDDQLICALCKLVGRHRDYQVAALSE,-0.381 ± 0.13
17,GLMCLEHEDEKVNMYCVTDDQLICALCKLVGRHRDTQVAALSE,-0.689 ± 0.13
18,GLMCLEHEDEKVNMYCVTDDQLICALCKLVGRHRDVQVAALSE,-0.588 ± 0.073
19,GLMCLEHEDEKVNMYCVTDDQLICALCKLVGRHRDWQVAALSE,-1.01 ± 0.16
20,GLMCLEHEDEKVNMYCVTDDQLICALCKLVGRHRDHDVAALSE,0.105 ± 0.12

row,Variant,abundance fitness
1,GLMCLEHEDEKVNMYCVTDDQLICALCKLVGRHRDHRVAALSE,-0.077 ± 0.056
2,GLMCLEHEDEKVNMYCVTDDQLICALCKLVGRHRDHAVAALSE,-0.006 ± 0.062
3,GLMCLEHEDEKVNMYCVTDDQLICALCKLVGRHRDHMVAALSE,-0.269 ± 0.15
4,GLMCLEHEDEKVNMYCVTDDQLICALCKLVGRHRDHLVAALSE,-0.338 ± 0.08
5,GLMCLEHEDEKVNMYCVTDDQLICALCKLVGRHRDHSVAALSE,0.047 ± 0.063
6,GLMCLEHEDEKVNMYCVTDDQLICALCKLVGRHRDHHVAALSE,-0.148 ± 0.097
7,GLMCLEHEDEKVNMYCVTDDQLICALCKLVGRHRDHWVAALSE,-0.6 ± 0.073
8,GLMCLEHEDEKVNMYCVTDDQLICALCKLVGRHRDHVVAALSE,-0.208 ± 0.059
9,GLMCLEHEDEKVNMYCVTDDQLICALCKLVGRHRDHFVAALSE,-0.347 ± 0.13
10,GLMCLEHEDEKVNMYCVTDDQLICALCKLVGRHRDHYVAALSE,-0.169 ± 0.13
11,GLMCLEHEDEKVNMYCVTDDQLICALCKLVGRHRDHEVAALSE,0.023 ± 0.066
12,GLMCLEHEDEKVNMYCVTDDQLICALCKLVGRHRDHGVAALSE,-0.146 ± 0.052
13,GLMCLEHEDEKVNMYCVTDDQLICALCKLVGRHRDHNVAALSE,-0.184 ± 0.19
14,GLMCLEHEDEKVNMYCVTDDQLICALCKLVGRHRDHTVAALSE,-0.026 ± 0.073
15,GLMCLEHEDEKVNMYCVTDDQLICALCKLVGRHRDHIVAALSE,-0.508 ± 0.29
16,GLMCLEHEDEKVNMYCVTDDQLICALCKLVGRHRDHPVAALSE,-0.015 ± 0.08
17,GLMCLEHEDEKVNMYCVTDDQLICALCKLVGRHRDHQVAHLSE,-0.141 ± 0.24
18,GLMCLEHEDEKVNMYCVTDDQLICALCKLVGRHRDHQVADLSE,0.031 ± 0.094
19,GLMCLEHEDEKVNMYCVTDDQLICALCKLVGRHRDHQVALLSE,-0.158 ± 0.063
20,GLMCLEHEDEKVNMYCVTDDQLICALCKLVGRHRDHQVAFLSE,0.099 ± 0.22

row,Variant,abundance fitness
1,GLMCLEHEDEKVNMYCVTDDQLICALCKLVGRHRDHQVAMLSE,-0.151 ± 0.14
2,GLMCLEHEDEKVNMYCVTDDQLICALCKLVGRHRDHQVAKLSE,0.108 ± 0.075
3,GLMCLEHEDEKVNMYCVTDDQLICALCKLVGRHRDHQVAILSE,-0.789 ± 0.29
4,GLMCLEHEDEKVNMYCVTDDQLICALCKLVGRHRDHQVAGLSE,0.046 ± 0.047
5,GLMCLEHEDEKVNMYCVTDDQLICALCKLVGRHRDHQVPALSE,-0.491 ± 0.11
6,GLMCLEHEDEKVNMYCVTDDQLICALCKLVGRHRDHQVNALSE,0.401 ± 0.1
7,GLMCLEHEDEKVNMYCVTDDQLICALCKLVGRHRDHQVYALSE,-0.393 ± 0.15
8,GLMCLEHEDEKVNMYCVTDDQLICALCKLVGRHRDHQVTALSE,0.181 ± 0.068
9,GLMCLEHEDEKVNMYCVTDDQLICALCKLVGRHRDHQVQALSE,0.04 ± 0.067
10,GLMCLEHEDEKVNMYCVTDDQLICALCKLVGRHRDHQVCALSE,0.003 ± 0.078
11,GLMCLEHEDEKVNMYCVTDDQLICALCKLVGRHRDHQVWALSE,-0.424 ± 0.086
12,GLMCLEHEDEKVNMYCVTDDQLICALCKLVGRHRDHQVIALSE,-0.08 ± 0.12
13,GLMCLEHEDEKVNMYCVTDDQLICALCKLVGRHRDHQVDALSE,0.088 ± 0.064
14,GLMCLEHEDEKVNMYCVTDDQLICALCKLVGRHRDHQVMALSE,-0.089 ± 0.083
15,GLMCLEHEDEKVNMYCVTDDQLICALCKLVGRHRDHQVSALSE,0.102 ± 0.066
16,GLMCLEHEDEKVNMYCVTDDQLICALCKLVGRHRDHQVHALSE,-0.024 ± 0.098
17,GLMCLEHEDEKVNMYCVTDDQLICALCKLVGRHRDHQVEALSE,0.016 ± 0.057
18,GLMCLEHEDEKVNMYCVTDDQLICALCKLVGRHRDHQVVALSE,0.027 ± 0.058
19,GLMCLEHEDEKVNMYCVTDDQLICALCKLVGRHRDHQVKALSE,0.059 ± 0.081
